{
  "source": "paper PMC10865538",
  "about": "(2024)",
  "data": [
    {"biological_target": "SARS-CoV-2 S protein receptor-binding domain (R319-F541) (SARS-CoV-2, UniProt P0DTC2 319-541)", "assay": "ELISA", "units": {"EC50": "nM"}, "values": [
      {"binder": "sdAb38 (VHH) VHH: EVQLVESGGGLVQPGGSLRLSCAASGNTSTRHPMSWVRQAPGKGLELVASIGRGEITYYADSVKGRFTISRDNSKNTLYLQMNSLRAEDTAVYYCAVCLRSVFVNCHNFAYWGQGTLVTVSS", "EC50": 46.1},
      {"binder": "sdAb12 (VHH) VHH: EVQLVESGGGLVQPGGSLRLSCAASGNTFPARTMSWVRQAPGKGLELVASIGRGEITYYADSVKGRFTISRDNSKNTLYLQMNSLRAEDTAVYYCAAPAHGSWMSRRPHIYWGQGTLVTVSS", "EC50": 60.1},
      {"binder": "sdAb10 (VHH) VHH: EVQLVESGGGLVQPGGSLRLSCAASGNTFPARTMSWVRQAPGKGLELVASIGPGRSTIYADSVKGRFTISRDNSKNTLYLQMNSLRAEDTAVYYCAVAYTSGLALRGSFSYWGQGTLVTVSS", "EC50": 22.2},
      {"binder": "sdAb42 (VHH) VHH: EVQLVESGGGLVQPGGSLRLSCAASGNTSTRHPMSWVRQAPGKGLELVASIGRGEITYYADSVKGRFTISRDNSKNTLYLQMNSLRAEDTAVYYCAVDAVFGGRHSHWGQGTLVTVSS", "EC50": 2},
      {"binder": "sdAb39 (VHH) VHH: EVQLVESGGGLVQPGGSLRLSCAASGNTSTRHPMSWVRQAPGKGLELVASIGRGEITYYADSVKGRFTISRDNSKNTLYLQMNSLRAEDTAVYYCAAFVDFLSRHNSRRPYPHGYWGQGTLVTVSS", "EC50": 4.3}
    ]}
  ]
}
